# T1: SAS1B on the surface of live cancer cells (human, UniProt Q6HA08 24-431)
# T1 sequence: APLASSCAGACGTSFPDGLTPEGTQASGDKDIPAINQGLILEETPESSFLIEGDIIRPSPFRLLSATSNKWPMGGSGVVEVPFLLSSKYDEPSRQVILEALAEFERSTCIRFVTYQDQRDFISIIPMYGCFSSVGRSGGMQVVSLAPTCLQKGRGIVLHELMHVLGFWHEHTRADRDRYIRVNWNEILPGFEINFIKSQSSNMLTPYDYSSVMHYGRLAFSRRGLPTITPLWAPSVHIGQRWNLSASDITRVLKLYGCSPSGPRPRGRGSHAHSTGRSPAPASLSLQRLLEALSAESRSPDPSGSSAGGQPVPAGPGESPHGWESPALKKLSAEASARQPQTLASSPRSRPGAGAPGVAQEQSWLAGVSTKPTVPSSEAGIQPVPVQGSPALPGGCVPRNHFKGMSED
# T2: SAS1B C-terminus extracellular domain (aa 160-431) (human, UniProt Q6HA08 160-431)
# T2 construct: also called C-term extracellular domain
# T2 sequence: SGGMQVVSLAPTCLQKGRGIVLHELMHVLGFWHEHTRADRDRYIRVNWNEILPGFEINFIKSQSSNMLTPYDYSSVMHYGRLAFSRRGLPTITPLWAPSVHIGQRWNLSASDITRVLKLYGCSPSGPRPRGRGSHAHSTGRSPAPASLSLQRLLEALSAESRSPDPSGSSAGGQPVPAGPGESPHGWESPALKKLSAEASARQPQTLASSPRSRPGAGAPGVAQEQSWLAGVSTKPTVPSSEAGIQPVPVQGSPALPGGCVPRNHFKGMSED
# T3: mouse SAS1B (mouse, UniProt Q6HA09 24-435, limits assumed)
# T3 sequence (looked up): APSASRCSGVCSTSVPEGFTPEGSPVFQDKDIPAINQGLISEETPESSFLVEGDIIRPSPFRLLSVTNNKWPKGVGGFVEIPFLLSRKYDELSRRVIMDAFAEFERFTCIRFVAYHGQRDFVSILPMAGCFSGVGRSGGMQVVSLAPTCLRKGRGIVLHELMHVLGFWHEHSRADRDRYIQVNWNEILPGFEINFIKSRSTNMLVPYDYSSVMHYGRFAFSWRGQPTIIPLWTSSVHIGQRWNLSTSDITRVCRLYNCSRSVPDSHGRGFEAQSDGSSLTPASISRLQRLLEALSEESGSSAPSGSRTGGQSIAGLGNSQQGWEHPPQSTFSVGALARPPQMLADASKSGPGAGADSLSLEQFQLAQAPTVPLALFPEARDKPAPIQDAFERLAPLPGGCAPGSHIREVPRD
# T4: SAS1B extracellular domain (aa 164-431) polypeptide (human, UniProt Q6HA08 164-431)
# T4 construct: mammalian cell-expressed recombinant; also called truncated SAS1B
# T4 sequence: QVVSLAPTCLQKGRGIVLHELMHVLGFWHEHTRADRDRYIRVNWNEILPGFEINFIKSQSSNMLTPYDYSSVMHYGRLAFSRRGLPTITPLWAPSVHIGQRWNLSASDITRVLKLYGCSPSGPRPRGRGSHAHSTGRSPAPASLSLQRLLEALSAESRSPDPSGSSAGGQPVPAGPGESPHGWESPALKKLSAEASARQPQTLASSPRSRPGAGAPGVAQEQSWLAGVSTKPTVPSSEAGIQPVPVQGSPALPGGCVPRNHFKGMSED
# Columns and labels:
# [1] = biological target: T1, SAS1B on the surface of live cancer …; experiment: cell-based or functional assay
# [2] = biological target: T2, SAS1B C-terminus extracellular domain …; experiment: western blot (FIG. 22)
# mouse SAS1B = biological target: T3, mouse SAS1B; experiment: summary table (Table 1)
# [3] = biological target: T4, SAS1B extracellular domain (aa 164-431) …; experiment: western blot, mammalian cell-expressed recombinant SAS1B
# Procedure: SAS1B monoclonal antibodies were analyzed with mammalian cell-expressed recombinant SAS1B by western blotting.
Binder,"percent of cells killed at 0.1 nM mAb, ADC assay with anti-mouse Fab-cleavable-Duocarmycin, pancreatic cancer cells 366, ~72 h, cellular ATP [1] [%]","percent of cells killed at 1 nM mAb, ADC assay with 15 nM anti-mouse Fab-cleavable-Duocarmycin, MPanc96 pancreatic cancer cells, ~72 h, cellular ATP [1] [%]","percent of cells killed at 1 nM mAb, ADC assay with anti-mouse Fab-cleavable-Duocarmycin, pancreatic cancer cells 366, ~72 h, cellular ATP [1] [%]",binding result [2],binding result (mouse SAS1B),binding result [3],"viability at 0.01 nM mAb, ADC assay with Fab-anti-mouse IgG Fc conjugated to Duocarmycin DM (cleavable linker), uterine cancer cells [1] [%]"
"anti-human SAS1B murine monoclonal antibody SB4 (antibody, IgG2a, V domains shown, Mouse hybridoma antibody, isotype IgG2a-k; also called SB4 mAb) VH: EVQLQQSGPELVKPGSSVKISCKPSGYTFTDYNMVWMKQSHGKSLEWIGAINPNNGGTTYNQKFKGKATLTVDKSSSTAYMELRSLTSEDSAVYYCAPNWDWFAYWGQGTLVTVSA VL: DVLMTQTPLSLPVSLGDQASISCRSSQSILHSNGNTYLEWYLQKPGQSPKLLIYKVSNRFSGVPDRFSGSGSGTDFTLKISRVEAEDLGVYYCFQGSHVPFTFGSGTKLEIK",33,64,77,no binding,no binding,no binding,
"anti-human SAS1B murine monoclonal antibody SB3 (antibody, IgG2b, V domains shown, also called SB3 mAb) VH: EVQLQQSGPELVKPGSSVKISCKASGYTFTDYNMVWVKQSHGKSLEWIGAVNPNNGGTSYNQKFKGKATLTVDKSSSTAYMELRSLTSEDSAVYYCVPNWDWFAYWGQGTLVTVSA VL: DVLMTQTPLSLPVSLGDQASISCRSSQSLVHSNGNTYLEWYLQKPGQSPNLLIYKVSNRFSGVPDRFSGSGSGTDFTLKISRVEAEDLGVYYCFQGSHVPFTFGSGTKLEIK",,,,no binding,no binding,no binding,
"anti-human SAS1B murine monoclonal antibody SB7 (antibody, IgG2b, V domains shown) VH: EVQLQQSGPELVKPGSSVKISCKPSGYTFTDYNMVWMKQSHGKSLEWIGAINPNNGGTTYNQKFKGKATLTVDKSSSTAYMELRSLTSEDSAVYYCAPNWDWFAYWGQGTLVTVSA VL: DVLMTQIPLSLPVSLGDQASISCRSSQSILHSNGNTYLEWYLQKPGQSPKLLIYKVSNRFSGVPDRFSGSGSGTDFTLKISRVEAEDLGVYYCFQGSHVPFTFGSGTKLEIK",,,,no binding,no binding,no binding,
"anti-human SAS1B murine monoclonal antibody SB6 (antibody, IgG2b, V domains shown) VH: EVQLQQSGPELVKPGSSVKISCKPSGYTFTDYNMVWMKQSHGKSLEWIGAINPNNGGTTYNQKFKGKATLTVDKSSSTAYMELRSLTSEDSAVYYCAPNWDWFAYWGQGTLVTVSA VL: DVLMTQIPLSLPVSLGDQASISCRSSQSILHSNGNTYLEWYLQKPGQSPKLLIYKVSNRFSGVPDRFSGSGSGTDFTLKISRVEAEDLGVYYCFQGSHVPFTFGSGTKLEIK",,,,no binding,no binding,no binding,
"anti-human SAS1B murine monoclonal antibody SB5 (antibody, IgG2b, V domains shown, Mouse hybridoma antibody, isotype IgG2b-k; also called SB5 mAb) VH: EVQLQQSGPELVKPGSSVKISCKPSGYTFTDYNMVWMKQSHGKSLEWIGAINPNNGGTTYNQKFKGKATLTVDKSSSTAYMELRSLTSEDSAVYYCAPNWDWFAYWGQGTLVTVSA VL: DVLMTQIPLSLPVSLGDQASISCRSSQSILHSNGNTYLEWYLQKPGQSPKLLIYKVSNRFSGVPDRFSGSGSGTDFTLKISRVEAEDLGVYYCFQGSHVPFTFGSGTKLEIK",49,57,76,no binding,no binding,no binding,87
"anti-human SAS1B murine monoclonal antibody SB2 (antibody, IgG2b, V domains shown, also called SB2 mAb) VH: EVQLQQSGPELVKPGSSVKISCKASGYTFTDYNMVWVKQSHGKSLEWIGAVNPNNGGTSYNQKFKGKATLTVDKSSSTAYMELRSLTSEDSAVYYCVPNWDWFAYWGQGTLVTVSA VL: DVLMTQTPLSLPVSLGDQASISCRSSQSLVHSNGNTYLEWYLQKPGQSPNLLIYKVSNRFSGVPDRFSGSGSGTDFTLKISRVEAEDLGVYYCFQGSHVPFTFGSGTKLEIK",59,80,88,no binding,no binding,no binding,66
"anti-human SAS1B murine monoclonal antibody SB1 (antibody, IgG2a, V domains shown, also called SB1 mAb) VH: EVQLQQSGPELVKPGSSVKISCKASGYTFTDYNMDWVKQSHGKSLEWIGAINPNNGGTSYNQKFKGKATLTVDKSSSTAYMELRSLTSEDSAVYYCATNEYWGQGTTLTVSS VL: NIVMTQSPKSMSMSVGERVTLSCKASENVGTYVSWYQQKPEQSPKLLIYGASNRYTGVPDRFTGSGSATDFTLTISSVQAEDLADYHCGQSYSYPWTFGGGTKLEIK",,,,no binding,,no binding,
